Among the data in patent US20260217849A1 (SHANGHAI HUAOTA BIOPHARMACEUTICAL, published 2026) are Kd, koff and kon values, retold here.

Assay [1] concerns the target T1, human CD73 antigen protein (ACRO Biosystems, Catalog No. CD3-H52H7) (human, UniProt P21589 27-547).
T1 construct: Bought protein; also called Human CD73 dimer protein; human CD73 protein
T1 sequence (looked up): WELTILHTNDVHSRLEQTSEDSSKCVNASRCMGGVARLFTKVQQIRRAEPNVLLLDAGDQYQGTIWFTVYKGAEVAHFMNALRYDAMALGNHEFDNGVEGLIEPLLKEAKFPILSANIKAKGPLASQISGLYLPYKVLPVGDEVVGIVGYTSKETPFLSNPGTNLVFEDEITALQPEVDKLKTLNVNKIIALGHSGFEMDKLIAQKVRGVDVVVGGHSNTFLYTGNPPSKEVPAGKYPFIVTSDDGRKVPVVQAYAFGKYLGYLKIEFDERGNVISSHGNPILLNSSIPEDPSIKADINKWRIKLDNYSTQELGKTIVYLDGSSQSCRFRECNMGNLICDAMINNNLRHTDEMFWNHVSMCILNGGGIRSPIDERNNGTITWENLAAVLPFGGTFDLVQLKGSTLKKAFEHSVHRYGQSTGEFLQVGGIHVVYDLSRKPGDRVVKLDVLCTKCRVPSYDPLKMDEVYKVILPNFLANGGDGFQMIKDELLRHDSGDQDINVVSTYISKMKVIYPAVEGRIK
Briefly: SPR BIAcore 8k, CD73 captured as ligand, 900698 added first (competitor), then 900725. From the text: (§1) First, the human CD73 antigen protein (manufacturer: ACRO Biosystems, Catalog No. CD3-H52H7) was captured as a ligand using BIAcore 8k, and then the antibodies were used as analytes.
A general note: Surface plasmon resonance follows binding to a sensor surface in real time, without labels.

Assay [2] addresses T1, human CD73 antigen protein (ACRO …). Nature of the assay: SPR BIAcore 8k, CD73 captured as ligand, analyte 1 buffer, analyte 2 900725.
Excerpt: as §1

Assay [3] has the same target. Nature of the assay: SPR BIAcore 8k, CD73 captured as ligand, 900725 added first (competitor), then 900698.
Excerpt: as §1

For assay [4] the target is unchanged. Nature of the assay: SPR BIAcore 8k, CD73 captured as ligand, analyte 1 buffer, analyte 2 900698.
Excerpt: as §1

The term Kd denotes a measure of binding affinity in units of concentration. Read a low Kd as a tighter complex. Usually koff stands for the first-order rate constant of dissociation. By kon is commonly meant a measure of how fast the partners come together. A low value points to slower complex formation.

B1: 900725 (antibody, human IgG1, kappa, L234A L235A, V domains shown)
VH: QVQLVQSGAEVKKPGASVKLSCKASGYTFTSYWIHWVRQAPGQGLEWIGMIHPNSGSTYYNEKFKGRATLTVDKSTSTAYMELSSLRSEDTAVYYCARYYGSDYEWYFDVWGQGTTVTVSS
VL: DIQMTQSPSSMSASVGDRVTITCKASQNVRTAVVWYQQKPGKAPKALIYLASNRHTGVPDRFSGSGSGTDFTLTISSLQPEDFATYFCLQHWNYPYTFGQGTKLEIKR
notes: also called component of the anti-CD73 cocktail antibody
As for B1, in assay [1], the Kd is 4.16 nM, the koff worked out at 0.00591 s⁻¹ and the kon worked out at 1.42e+06 M⁻¹ s⁻¹. Besides, in assay [2], the equilibrium dissociation constant (Kd) was found to be 3.01 nM, the koff turned out to be 0.00452 s⁻¹ and the kon worked out at 1.5e+06 M⁻¹ s⁻¹.

B2: 900698 (antibody, human IgG1, kappa, L234A L235A, V domains shown)
VH: QVQLVESGGGLVKPGGSLRLSCAASGFTFSKYAMSWIRQAPGKGLEWVAEISSGGGYINYADSVKGRFTISRDNAKNSLYLQMNSLRAEDTAVYYCARAIYYYGSSYNYYAMDYWGQGTTVTVSS
VL: DIQMTQSPSSLSASVGDRVTITCRASQDVGTAEAWYQQKPGKAPKLLIYWASTRHTGVPSRFSGSGSGTDFTLTISSLQPEDFATYYCQQYSSYPLTFGQGTKLEIKR
notes: as for B1
In assay [3], B2 showed a Kd of 12.6 nM, a koff of 0.0017 s⁻¹ and a kon of 135000 M⁻¹ s⁻¹. In assay [4], the dissociation constant Kd was found to be 7.3 nM, the off-rate (koff) is 0.00114 s⁻¹ and the kon turned out to be 156000 M⁻¹ s⁻¹.
